One molecule from article PMC11211491 (2024) can be followed below.

Square brackets hold non-standard residues; d marks the D form. Dap = NC[C@H](N)C(=O)O

For this assay, the target named is His-tagged SRPK1ΔNS3 (UniProt Q96SB4 1-655). Put plainly: MST.
His-tagged SRPK1ΔNS3, sequence (Q96SB4 other isoform, or with tags, fused parts or gaps mutant): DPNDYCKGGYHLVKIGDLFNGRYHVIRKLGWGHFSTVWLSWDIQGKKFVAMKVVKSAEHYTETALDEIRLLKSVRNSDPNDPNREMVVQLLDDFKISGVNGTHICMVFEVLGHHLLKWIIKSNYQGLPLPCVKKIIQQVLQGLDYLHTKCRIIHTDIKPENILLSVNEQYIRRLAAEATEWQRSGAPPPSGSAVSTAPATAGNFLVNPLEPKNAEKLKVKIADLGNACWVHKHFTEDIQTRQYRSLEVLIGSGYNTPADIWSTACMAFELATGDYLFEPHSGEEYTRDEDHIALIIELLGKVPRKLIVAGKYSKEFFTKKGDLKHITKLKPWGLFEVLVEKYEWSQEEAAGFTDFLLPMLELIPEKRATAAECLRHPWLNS

B1: covalent docking blocker of SRPK (C-DBS) (peptide)
chain: Ac-RERARTRR[Dap](aryl‑SO2F)RARTRERARTR-NH2
The Kd is the free concentration of one partner at which half of the binding sites on the other are occupied at equilibrium, for simple one-to-one binding. High values mean a looser complex, low ones a tighter complex. For the molecule B1, binding was characterised by a dissociation constant (Kd) of 1470 nM.
